These results are taken from article PMC8718266.

The target in the assay is HA-FBW7 (UniProt Q8VBV4). The assay can be described thus: FLAG IP, HA immunoblot. Particulars: reference: wild type. A general note: Immunoblotting shows a protein as a band on a membrane.

As to “KLF2 (3xFLAG-KLF2) (from UniProt Q60843) 2A N (T171A/S175A)”, where the note is “sites T171,S175”, the “binding against the reference” value was “weaker”.

Consider “KLF2 (3xFLAG-KLF2) (from UniProt Q60843) 2A C (T243A/S247A)”, for which the “binding against the reference” value (sites T243,S247) is on record as “weaker”.
